{"source": "patent US20180179292", "proteins": {"B1": {"name": "G protein-coupled receptor kinase (GRK) in mouse heart lysates (protein)", "chain": "MADLEAVLADVSYLMAMEKSKATPAARASKKILLPEPSIRSVMQKYLEDRGEVTFEKIFSQKLGYLLFRDFCLNHLEEAKPLVEFYEEIKKYEKLETEEERVVRSREIFDSYIMKELLACSHPFSKNATEHVQGHLVKKQVPPDLFQPYIEEICQNLRGDVFQKFIESDKFTRFCQWKNVELNIHLTMNDFSVHRIIGRGGFGEVYGCRKADTGKMYAMKCLDKKRIKMKQGETLALNERIMLSLVSTGDCPFIVCMSYAFHTPDKLSFILDLMNGGDLHYHLSQHGVFSEADMRFYAAEIILGLEHMHNRFVVYRDLKPANILLDEHGHVRISDLGLACDFSKKRPHASVGTHGYMAPEVLQKGVAYDSSADWFSLGCMLFKLLRGHSPFRQHKTKDKHEIDRMTLTMAVELPDSFSPELRSLLEGLLQRDVNRRLGCLGRGAQEVKESPFFRSLDWQMVFLQKYPPPLIPPRGEVNAADAFDIGSFDEEDTKGIKLLDSDQELYRNFPLTISERWQQEVAETVFDTINAETDRLEARKKAKNKQLGHEEDYALGKDCIVHGYMSKMGNPFLTQWQRRYFYLFPNRLEWRGEGEAPQSLLTMEEIQSVEETQIKERKCLLLKIRGGKQFVLQCDSDPELVQWKKELRDAYREAQQLVQRVPKMKNKPRSPVVELSKVPLIQRGSANGL"}}, "key": {"[1]": {"target": "wild-type RKIP, cardiac transgene (RKIP-tg)"}, "[2]": {"target": "RKIP^S153A, cardiac transgene"}}}
{"protein": "B1", "values": [{"measurement": "GRK activity (in vitro rhodopsin phosphorylation with heart lysates; immunoblot of β2AR phosphorylation)", "setting": "[1]", "value": "GRK activity was significantly reduced in mouse hearts of RKIP-tg"}, {"measurement": "GRK activity (in vitro rhodopsin phosphorylation with heart lysates; immunoblot of β2AR phosphorylation)", "setting": "[2]", "value": "GRK activity was significantly reduced in mouse hearts of RKIP-tg but not of RKIP^S153A mice"}]}
